One molecule from patent US8404239B2, “Anti-Notch2 NRR antibodies” (Genentech, Inc., priority 2008, dated 2013) can be followed below.

The subject of experiment [1] is thymus, CD4+/CD8+ double-positive T cells. The experiment is described as follows: In vivo thymus / T cell development in Balb/c mice. Details: species or system mouse. The conditions noted are these: 5 mg/kg four times every four days. As for the experimental part: Balb/c mice were injected four times every four days with 5 mg/kg of α-gD isotype control, α-NRR1 or α-NRR2, and cells were harvested from the thymus or spleen on day 13, one day after the fourth dose. (A) Thymus weight measurements. Thymus weights (in mg) are expressed relative to total body weight (in g). Values represent the mean plus standard deviation for three mice per group. (B) Thymus cell count. (C) CD4 and CD8 FACS to identify CD4^+/CD8^+ double-positive T cells. Numbers represent the percentage of thymic cells in the double-negative, single-positive and double-positive populations. […] (D) CD21 and CD23 FACS to identify marginal zone B cells. Numbers represent the mean percentages ±standard deviation (from three animals) of cells within the MZB gate, which is boxed; p values are also noted; representative dot plots from one of the three animals in each group are graphed.
Splenocytes were isolated from the mice and were stained for FACS with B220-PerCP, CD23-PE and CD21-FITC (BD Biosciences) as previously described (Saito, et al., Immunity, Vol. 18, 675-685, May 2003).

A further experiment deals with LOX-IMVI melanoma cells. The experiment is described as follows: Cell Titer Glo viability of melanoma cell line LOX-IMVI. The class given is cell-based, human. The settings on record: six days, antibodies 20 mg/ml, DAPT 5 μM, ± Jagged-1. The protocol: Human melanoma cell lines SK23 and LOX-IMVI were plated in medium containing 2% FBS at low density (4000 cells/well for SK23, 2500 cells/well for LOX-IMVI) in 96 well plates that were coated without (−jag-1) or with Jagged-1 ligand (+jag-1) (R&D Systems, Minneapolis, Minn.). […] An equal volume of DMSO served as the vehicle control, whereas an equal concentration of anti-gD HuB6 phage antibody served as the isotype control antibody. Cell Titer Glo assays (Promega, Madison, Wis.) were performed six days after plating. […] In FIGS. 25A and 25B, cell viability (y-axis) is expressed relative to the values from the DMSO vehicle, −jag-1 control wells.
In general terms: In ATP-based viability assays light output follows the ATP content of the culture.

B1: anti-NRR2: affinity matured form of Antibody D, phage library-derived human anti-Notch2 NRR monoclonal antibody (antibody, V domains shown)
VH: EVQLVESGGGLVQPGGSLRLSCAASGYTFSSYGMSWVRQAPGKGLEWVSYIYPYSGATYYADSVKGRFTISADTSKNTAYLQMNSLRAEDTAVYYCARHSGYYRISSAMDVWGQGTLVTVSA
VL: DIQMTQSPSSLSASVGDRVTITCRASQNIKRFLAWYQQKPGKAPKLLIYGASTRESGVPSRFSGSGSGTDFTLTISSLQPEDFATYYCQQYYRSPHTFGQGTKVEIKR
On to B1, for which, in experiment [1] (day 13), the “total number of cells in the thymus” value is reported as “not”. Further, the “percentage of thymic cells in the CD4+/CD8+ population” value in experiment [1] (day 13, FACS) was 80%. The cell viability entry with LOX-IMVI melanoma cells is on record as “decrease in viability”.
